Data reported in the RNAGym collection of RNA variant scans (doi:10.1073/pnas.2313332121).

B1: TPR t1 (parent)
chain: GACCAAUCUGCCCUCAGAGCUCGAGAACAUCUUCGGAUGCAGAGGAGGCAGGCUUCGGUGGCGCGAUAGCGCCAACGUCCUCAACCUCCAAUGCAUCCCACCACAUGAUGAUGCCUGAAGAGCCUUGGUUUUUUG

Variants of: B1
Test: polymerase ribozyme fitness, log enrichment relative to wild type (log ratio); higher = more active; in vitro selection for triplet polymerase activity
Outline: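 Libraries of mutants in each subunit of a heterodimeric triplet polymerase ribozyme were generated by PCR and transcribed. In triplicate, each went through one in vitro selection round: annealing with biotinylated primer, partner subunit and triplets; frozen incubation at −7 °C; gel excision of extended constructs; streptavidin-bead capture; RT-PCR. Fitness, taken from Illumina sequencing of input and output libraries, is the logarithm of a genotype's enrichment over wild-type enrichment, averaged across replicates with inverse-variance weights. The logarithm is base 2, and genotypes needed ≥10 input reads and ≥1 read per output to be kept.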

Row | Variant | polymerase ribozyme fitness (log ratio)
1 | C12U U109G | -3.6
2 | C13A C53U C114U G120A | -3.61
3 | C13A G52A C53U A75U U81G G120U C124U G127U | -1.17
4 | C13A A29G U55A C76G C101G C102A U112C | -8.04
5 | C13A A84U G93U G117U | -6.66
6 | C13A C79A | -3.23
7 | C13A C72U U78A | -2.1
8 | C12U G17U A50G G63U | -3.39
9 | C12U G35U C89G C115U | -6.55
10 | C12U G44C C79A C89A | -1.32
11 | C12U G61A U92A U126A | -4.38
12 | C12U C70U G71U U112A C123G | 0.00675
13 | C13A G60U | -1.81
14 | C12U U125A | 0.114
15 | C13A G60A C102U A118C G120U | -2.89
16 | C13A G36C C53G A95C | -4.38
17 | C13A G19A G113U | -3.81
18 | C12U G36A C62G C73A | -6.24
19 | C12U U33G C123G | -4.3
20 | C12U G48A C49G G51A U112A C123A | 0.0276
21 | C13A U55C G69C G110U | -4.5

Row | Variant | polymerase ribozyme fitness (log ratio)
22 | C13A C101U G113A | -2.95
23 | C13A C88G | -3.12
24 | C12U G42A C97U | -3.11
25 | C13A C53U G120U | -1.1
26 | C13A A16G U133G | -2.57
27 | C12U U125A U126C | -0.829
28 | C13A A18C G36A G42U A84C | -4.45
29 | C13A G71U A119G | -1.25
30 | C12U C72G C86U C104U G122A | -0.0421
31 | C13A C40A C79U | -2.13
32 | C13A G42A G69U A111C U116A U129G | -4.99
33 | C12U G44A C88U U92G U112A U116G G135A | -5.19
34 | C13A A46C C124G | 0.675
35 | C12U U116A | -1.04
36 | C13A A41C C73G | -4.43
37 | C13A C99A | -6.93
38 | C13A G52U C53U | -3.61
39 | C12U G45A G51U | -3.98
40 | C13A G113U | -4.1
41 | C13A G113A | -2.48
42 | C13A U33G C124G | -4.34

Row | Variant | polymerase ribozyme fitness (log ratio)
43 | C13A A37G | -2.27
44 | C13A C53U C56U U59G | -2.18
45 | C13A G60A U131A | -2.5
46 | C13A U78C | -1.78
47 | C12U G36C A46U C72G U112C G127U | -1.47
48 | C12U G113A | 0.642
49 | C12U G113U | -1.65
50 | C12U G51A G120A G127C G128U | -1.84
51 | C13A A50G C62A | -3.49
52 | C12U C72A | 0.312
53 | C12U C70A C88U U129C | -1.99
54 | C12U C123G | 2.68
55 | C13A G63U C70U | -0.406
56 | C12U G52A C86U C97A | -4.13
57 | C12U G47U G69A G110C U112G | -7.15
58 | C12U U87C A103U G120A | -1.81
59 | C12U U32C C56G | -0.144
60 | C13A A18C C94G C114U | -5.11
61 | C13A C22A C31A A46U G71A G120A | -6.56
62 | C13A G110A | -1.4
63 | C13A G61U | -1.08

Row | Variant | polymerase ribozyme fitness (log ratio)
64 | C13A C15G U106A | -3.48
65 | C13A A27U C101U | -4.94
66 | C12U G39U C115A | -0.243
67 | C12U G45U U132C | -1.19
68 | C12U U54G U55A G61A G110A A118C U129A | -6.68
69 | C13A C49G | -1.06
70 | C13A C49U | -1.33
71 | C13A G93C | -2.4
72 | C13G A18U A27G C53U C70U C89A C104U | -5.81
73 | C12U U96G | -0.215
74 | C12U U96A | -0.734
75 | C12U U38C G71U C101G | -2.11
76 | C12U G39A C56A G71A | -4.31
77 | C12U G36A A66C U78C C82G A121U | -0.787
78 | C12U G61C A119U | -1.74
79 | C12U C80U G110A U130C | -0.275
80 | C12U C80U C102U | -2.35
81 | C13A G69U U129A | -1.63
82 | C12U G77C U81G | -1.21
83 | C13G A27U G47U G63A U78A | -6.63
84 | C12U C73U C97A G110U C115A C124G | -6.74
